# Measurements from EP1407030B1.
# Molecular target: plasminogen
# Test: cell-based or functional assay
substance,measurement,value
phage-displayed recombinant K2S (K2S-gp3 fusion protein on VCSM13 filamentous phage) (from UniProt P00750 209-562),fibrinogen-dependent enzymatic activity (amidolytic assay with plasminogen and S-2251),< 0.25 IU/ml
